Biological target: 5*MYC-HSD17B13 (Mouse) (UniProt Q8VCR2)
Assay: co-immunoprecipitation (IP: MYC) and Western blotting, band intensity
Details: HEK293T cells transfected with EGFP-Rab2A plasmids and MYC-HSD17B13; parent: 3.3

Chain of UniProt Q8VCR2 (Q8VCR2 whole entry): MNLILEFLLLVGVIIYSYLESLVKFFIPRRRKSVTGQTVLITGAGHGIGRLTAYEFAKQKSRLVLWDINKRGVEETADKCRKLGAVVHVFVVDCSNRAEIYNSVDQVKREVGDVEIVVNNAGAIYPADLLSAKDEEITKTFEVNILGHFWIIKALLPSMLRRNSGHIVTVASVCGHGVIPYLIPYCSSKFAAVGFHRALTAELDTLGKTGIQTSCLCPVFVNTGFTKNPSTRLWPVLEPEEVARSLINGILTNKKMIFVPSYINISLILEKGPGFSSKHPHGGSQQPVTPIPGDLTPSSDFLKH

## Rab2A, wild type, expressed from a plasmid in HEK293T cells (tag not told) (from UniProt P53994) Q32...E42-A...A
  response: 0.9
